Source: patent US20120214741

Columns and labels:
[1] = target: T1, VDAC of isolated rat mitochondria (liver, brain), Q9Z2L0
T1 chain: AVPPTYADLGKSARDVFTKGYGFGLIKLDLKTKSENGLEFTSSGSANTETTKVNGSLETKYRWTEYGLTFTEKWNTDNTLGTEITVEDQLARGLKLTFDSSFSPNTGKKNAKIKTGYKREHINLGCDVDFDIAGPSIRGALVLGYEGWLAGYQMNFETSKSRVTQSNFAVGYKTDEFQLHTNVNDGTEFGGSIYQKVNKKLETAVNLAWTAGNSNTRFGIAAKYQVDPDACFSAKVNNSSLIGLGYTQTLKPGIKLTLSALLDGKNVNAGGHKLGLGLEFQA

[2] = target: T2, native mVDAC1 (mouse VDAC1), purified recombinant
T2 chain: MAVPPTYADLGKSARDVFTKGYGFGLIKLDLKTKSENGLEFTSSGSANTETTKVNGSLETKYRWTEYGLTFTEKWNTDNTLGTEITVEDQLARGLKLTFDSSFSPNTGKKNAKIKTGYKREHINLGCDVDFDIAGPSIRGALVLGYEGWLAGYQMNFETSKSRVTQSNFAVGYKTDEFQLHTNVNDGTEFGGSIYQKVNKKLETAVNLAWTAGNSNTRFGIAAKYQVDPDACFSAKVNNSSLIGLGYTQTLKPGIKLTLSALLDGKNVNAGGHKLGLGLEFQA

[3] = target: E72Q-mVDAC1, purified recombinant

Row | Protein | PTP opening (swelling of energized mitochondria) [1] | PTP opening (Ca2+ accumulation and swelling of energized mitochondria) [1] | release of cytochrome c from mitochondria (Western blot) [1] | VDAC1 channel closure in a planar lipid bilayer (currents before and 5 min after HK-I, 28.6 mU/ml) [2] | VDAC1 channel closure in a planar lipid bilayer (currents before and 5 min after HK-I, 28.6 mU/ml) [3]
1 | chymotrypsin-treated HK-I (protein) FTELKDDQVKKIDKYLYAMRLSDEILIDILTRFKKEMKNGLSRDYNPTASVKMLPTFVRSIPDGSEKGDFIALDLGGSSFRILRVQVNHEKNQNVSMESEIYDTPENIVHGSGTQLFDHVADCLGDFMEKKKIKDKKLPVGFTFSFPCRQSKIDEAVLITWTKRFKASGVEGADVVKLLNKAIKKRGDYDANIVAVVNDTVGTMMTCGYDDQQCEVGLIIGTGTNACYMEELRHIDLVEGDEGRMCINTEWGAFGDDGSLEDIRTEFDRELDRGSLNPGKQLFEKMVSGMYMGELVRLILVKMAKEGLLFEGRITPELLTRGKFNTSDVSAIEKDKEGIQNAKEILTRLGVEPSDVDCVSVQHICTIVSFRSANLVAATLGAILNRLRDNKGTPRLRTTVGVDGSLYKMHPQYSRRFHKTLRRLVPDSDVRFLLSESGTGKGAAMVTAVAYRLAEQHRQIEETLAHFRLSKQTLMEVKKRLRTEMEMGLRKETNSKATVKMLPSFVRSIPDGTEHGDFLALDLGGTNFRVLLVKIRSGKKRTVEMHNKIYSIPLEIMQGTGDELFDHIVSCISDFLDYMGIKGPRMPLGFTFSFPCHQTNLDCGILISWTKGFKATDCEGHDVASLLRDAVKRREEFDLDVVAVVNDTVGTMMTCAYEEPTCEIGLIVGTGTNACYMEEMKNVEMVEGNQGQMCINMEWGAFGDNGCLDDIRTDFDKVVDEYSLNSGKQRFEKMISGMYLGEIVRNILIDFTKKGFLFRGQISEPLKTRGIFETKFLSQIESDRLALLQVRAILQQLGLNSTCDDSILVKTVCGVVSKRAAQLCGAGMAAVVEKIRENRGLDHLNVTVGVDGTLYKLHPHFSRIMHQTVKELSPKCTVSFLLSEDGSGKGAALITAVGVRLRGDPSIA | The failure of non-binding species of HK, such as yeast HK, or trypsin- or chymotrypsin-treated HK-I (FIG. 2D) to prevent PTP opening | – | – | – | –
2 | Rat brain HK-I (hexokinase-I), purified (protein) MIAAQLLAYYFTELKDDQVKKIDKYLYAMRLSDEILIDILTRFKKEMKNGLSRDYNPTASVKMLPTFVRSIPDGSEKGDFIALDLGGSSFRILRVQVNHEKNQNVSMESEIYDTPENIVHGSGTQLFDHVADCLGDFMEKKKIKDKKLPVGFTFSFPCRQSKIDEAVLITWTKRFKASGVEGADVVKLLNKAIKKRGDYDANIVAVVNDTVGTMMTCGYDDQQCEVGLIIGTGTNACYMEELRHIDLVEGDEGRMCINTEWGAFGDDGSLEDIRTEFDRELDRGSLNPGKQLFEKMVSGMYMGELVRLILVKMAKEGLLFEGRITPELLTRGKFNTSDVSAIEKDKEGIQNAKEILTRLGVEPSDVDCVSVQHICTIVSFRSANLVAATLGAILNRLRDNKGTPRLRTTVGVDGSLYKMHPQYSRRFHKTLRRLVPDSDVRFLLSESGTGKGAAMVTAVAYRLAEQHRQIEETLAHFRLSKQTLMEVKKRLRTEMEMGLRKETNSKATVKMLPSFVRSIPDGTEHGDFLALDLGGTNFRVLLVKIRSGKKRTVEMHNKIYSIPLEIMQGTGDELFDHIVSCISDFLDYMGIKGPRMPLGFTFSFPCHQTNLDCGILISWTKGFKATDCEGHDVASLLRDAVKRREEFDLDVVAVVNDTVGTMMTCAYEEPTCEIGLIVGTGTNACYMEEMKNVEMVEGNQGQMCINMEWGAFGDNGCLDDIRTDFDKVVDEYSLNSGKQRFEKMISGMYLGEIVRNILIDFTKKGFLFRGQISEPLKTRGIFETKFLSQIESDRLALLQVRAILQQLGLNSTCDDSILVKTVCGVVSKRAAQLCGAGMAAVVEKIRENRGLDHLNVTVGVDGTLYKLHPHFSRIMHQTVKELSPKCTVSFLLSEDGSGKGAALITAVGVRLRGDPSIA | – | HK-I inhibited PTP opening | HK-I prevented the release of cytochrome c from mitochondria | HK-I is able to close native VDAC1 | HK-I is able to close native VDAC1 but not mutated E72Q-VDAC1 (SEQ ID NO:43)
3 | trypsin-treated HK-I (protein) MIAAQLLAYYFTELKDDQVKKIDKYLYAMRLSDEILIDILTRFKKEMKNGLSRDYNPTASVKMLPTFVRSIPDGSEKGDFIALDLGGSSFRILRVQVNHEKNQNVSMESEIYDTPENIVHGSGTQLFDHVADCLGDFMEKKKIKDKKLPVGFTFSFPCRQSKIDEAVLITWTKRFKASGVEGADVVKLLNKAIKKRGDYDANIVAVVNDTVGTMMTCGYDDQQCEVGLIIGTGTNACYMEELRHIDLVEGDEGRMCINTEWGAFGDDGSLEDIRTEFDRELDRGSLNPGKQLFEKMVSGMYMGELVRLILVKMAKEGLLFEGRITPELLTRGKFNTSDVSAIEKDKEGIQNAKEILTRLGVEPSDVDCVSVQHICTIVSFRSANLVAATLGAILNRLRDNKGTPRLRTTVGVDGSLYKMHPQYSRRFHKTLRRLVPDSDVRFLLSESGTGKGAAMVTAVAYRLAEQHRQIEETLAHFRLSKQTLMEVKKRLRTEMEMGLRKETNSKATVKMLPSFVRSIPDGTEHGDFLALDLGGTNFRVLLVKIRSGKKRTVEMHNKIYSIPLEIMQGTGDELFDHIVSCISDFLDYMGIKGPRMPLGFTFSFPCHQTNLDCGILISWTKGFKATDCEGHDVASLLRDAVKRREEFDLDVVAVVNDTVGTMMTCAYEEPTCEIGLIVGTGTNACYMEEMKNVEMVEGNQGQMCINMEWGAFGDNGCLDDIRTDFDKVVDEYSLNSGKQRFEKMISGMYLGEIVRNILIDFTKKGFLFRGQISEPLKTRGIFETKFLSQIESDRLALLQVRAILQQLGLNSTCDDSILVKTVCGVVSKRAAQLCGAGMAAVVEKIRENRGLDHLNVTVGVDGTLYKLHPHFSRIMHQTVKELSPKCTVSFLLSEDGSGKGAALITAVGVRLRGDPSIA | The failure of non-binding species of HK, such as yeast HK, or trypsin- or chymotrypsin-treated HK-I (FIG. 2D) to prevent PTP opening | – | – | – | –
